The record followed here is patent US20020028487A1 (UNIVERSITY COURT OF THE UNIVERSITY OF GLASGOW, published 2002).

First the molecules themselves.
B1: VP16-JMY^469-558 (other)
chain: EKLQYAVSKETLQMMRAKEICLEQKKHALKEEMQSLQGGTEAIARLDQLESDYYDLQLQLYEVQFEILKCEELLLTAQLESIKRLISEKR
notes: Two-hybrid prey used in yeast and in U2OS cells; also called pVP16-JMY^469-558; JMY-VP16
B2: Lex-JMY^469-558 (other)
chain: B1 chain
notes: Yeast two-hybrid bait; also called pLex-JMY^469-558; not shown: LexA part of bait vector pLex (his)

One test deals with G4-p300^1572-2283 (yeast, UniProt P04386 1-147; Q09472 1572-2283). In words: cell-based or functional assay.
The next test concerns the target G4-p300^611-1257 (yeast, UniProt P04386 1-147; Q09472 611-1257). In words: cell-based or functional assay.
In test [1] the target is T1, G4-p300 from residue 1302 to 1572 (yeast, UniProt P04386 1-147; Q09472 1302-1572).
T1 construct: Mammalian two-hybrid bait; also called p300^302-1572 (as printed in the methods)
In words: mammalian two-hybrid assay, U2OS cells, pG5-luc reporter.

In the test “VP16-JMY^469-558” the target is B1. In words: yeast two-hybrid, β-galactosidase induction; prey VP16-JMY^469-558.

As to B1, the “relative activity of luciferase to β-galactosidase (pG5-luc reporter, mammalian two-hybrid assay in U2OS cells)” value was found to be 5 fold increase with G4-p300^1572-2283 and 4 fold increase with G4-p300^611-1257. The binding result in test [1] is given as “no binding”.
Consider B2, for which the binding result in the test with VP16-JMY^469-558 is given as “binds”.
